From patent publication US20240398920A1 (CYTOMX THERAPEUTICS, published 2024) come the findings set out here.

Read-outs that look alike come from different tables or passages of the source.

Holding throughout (assay): cell-based or functional assay
In assay [1] the target is T1, human herpes virus entry mediator (HVEM) (human, UniProt Q92956 39-283).
T1 sequence (looked up): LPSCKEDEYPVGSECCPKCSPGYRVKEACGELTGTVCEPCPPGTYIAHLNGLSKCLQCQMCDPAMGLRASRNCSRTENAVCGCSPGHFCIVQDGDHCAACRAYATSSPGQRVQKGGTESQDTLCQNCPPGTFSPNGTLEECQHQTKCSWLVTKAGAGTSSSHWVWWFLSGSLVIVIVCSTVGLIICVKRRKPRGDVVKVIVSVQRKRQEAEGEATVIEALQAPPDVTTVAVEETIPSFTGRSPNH

For assay [2], the target named is T2, human lymphotoxin beta receptor (LTbR) (human, UniProt P36941 31-435).
For assay [3], the target named is T1, human herpes virus entry mediator (HVEM). This is another data set of the same source.
Assay [4] addresses T2, human lymphotoxin beta receptor (LTbR). This is another data set of the same source.
Assay [5] concerns the target T1, human herpes virus entry mediator (HVEM). This is another data set of the same source.
Assay [6] shares this target. This is another data set of the same source.
Assay [7] deals with T2, human lymphotoxin beta receptor (LTbR). The source holds these as a separate data set.
The target of assay [8] is T1, human herpes virus entry mediator (HVEM). The source holds these as a separate data set.
Assay [9] shares this target. The source holds these as a separate data set.

T2 sequence (P36941 31-435): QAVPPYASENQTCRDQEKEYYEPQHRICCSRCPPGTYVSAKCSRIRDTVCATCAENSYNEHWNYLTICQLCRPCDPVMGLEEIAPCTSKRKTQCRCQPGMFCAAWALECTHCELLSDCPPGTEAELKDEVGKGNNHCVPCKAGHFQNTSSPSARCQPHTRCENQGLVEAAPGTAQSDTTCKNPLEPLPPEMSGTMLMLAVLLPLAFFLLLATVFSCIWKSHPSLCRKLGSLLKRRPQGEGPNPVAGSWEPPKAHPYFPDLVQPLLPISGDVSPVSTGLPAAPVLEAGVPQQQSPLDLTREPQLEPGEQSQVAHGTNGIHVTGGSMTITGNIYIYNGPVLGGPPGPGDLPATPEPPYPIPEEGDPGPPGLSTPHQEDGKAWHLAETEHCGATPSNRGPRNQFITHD

B1: ProC_mLm16_1490_LIGHT-10GS-Strep (ProC1192) (other)
chain: QGQSGSRHPCRHDPHIICYKFGGGSSGGSISSGLLSGRSDNIGGSQERRSHEVNPAAHLTGANSSLTGSGGPLLWETQLGLAFLRGLSYHDGALVVTKAGYYYIYSKVQLGGVGCPLGLASTITHGLYKRTPRYPEELELLVSQQSPCGRATSSSRVWWDSSFLGGVVHLEAGEEVVVRVLDERLVRLRDGTRSYFGAFMVSGGGSGGGSGSAWSHPQFEK
As for B1, the “masking efficiency, HVEM Reporter Assay (EC50 against control ProC1188 or protease-activated ProC1192)” value in assay [1] was above 20 fold. Also, the “EC50 [pM]: Lymphotoxin beta receptor Reporter Assay” value in assay [2] was determined as 31.3 pM. Further, the “EC50 [nM]: HVEM Reporter Assay” value in [3] came out at 25.6 nM.

B2: ProC1192 + uPa (ligand, not shown: small tags and cut ends)
chain: GGSQERRSHEVNPAAHLTGANSSLTGSGGPLLWETQLGLAFLRGLSYHDGALVVTKAGYYYIYSKVQLGGVGCPLGLASTITHGLYKRTPRYPEELELLVSQQSPCGRATSSSRVWWDSSFLGGVVHLEAGEEVVVRVLDERLVRLRDGTRSYFGAFMVSGGGSGGGSGSAWSHPQFEK
In the case of B2, the EC50 [pM]: Lymphotoxin beta receptor Reporter Assay in assay [4] was determined as 2 pM. Further, the EC50 [nM]: HVEM Reporter Assay in assay [5] was determined as 0.999 nM.

B3: LIGHT-10GS-Strep (ProC1188) (ligand)
chain: QERRSHEVNPAAHLTGANSSLTGSGGPLLWETQLGLAFLRGLSYHDGALVVTKAGYYYIYSKVQLGGVGCPLGLASTITHGLYKRTPRYPEELELLVSQQSPCGRATSSSRVWWDSSFLGGVVHLEAGEEVVVRVLDERLVRLRDGTRSYFGAFMVSGGGSGGGSGSAWSHPQFEK
Take B3: the results for the “EC50 [nM]: HVEM Reporter Assay” value in [6] and in assay [3] were 0.843 nM and 1 nM, respectively. Besides, the “EC50 [pM]: Lymphotoxin beta receptor Reporter Assay” value in assay [7] and in [2] was 5.3 pM each time.

B4: ProC_LIGHT-10GS-His (ProC1189) (ligand)
chain: QERRSHEVNPAAHLTGANSSLTGSGGPLLWETQLGLAFLRGLSYHDGALVVTKAGYYYIYSKVQLGGVGCPLGLASTITHGLYKRTPRYPEELELLVSQQSPCGRATSSSRVWWDSSFLGGVVHLEAGEEVVVRVLDERLVRLRDGTRSYFGAFMVSGGGSGGGSGHHHHHH
For the molecule B4, the results for the “EC50 [nM]: HVEM Reporter Assay” value in [8] and in assay [9] were 0.86 nM and 0.58 nM, respectively.
